Legend:
[1] = target: pure human iC3b (Complement Technology, A115) (human) (UniProt P01024); assay: sandwich ELISA, capture A209 (Example 5), goat anti-C3-HRP; TABLE 6 well H6, 10% vitreous
[2] = target: pure human iC3b (Complement Technology, A115) (human) (UniProt P01024); assay: sandwich ELISA, capture A209 (Example 5), goat anti-C3-HRP; TABLE 6 well H7, 10% vitreous
[3] = target: pure human iC3b (Complement Technology, A115) (human) (UniProt P01024); assay: sandwich ELISA, capture A209 (Example 5), goat anti-C3-HRP; TABLE 6 well D6, 30% vitreous
[4] = target: pure human iC3b (Complement Technology, A115) (human) (UniProt P01024); assay: sandwich ELISA, capture A209 (Example 5), goat anti-C3-HRP; TABLE 6 well A9, blocker
[5] = target: pure human iC3b (Complement Technology, A115) (human) (UniProt P01024); assay: sandwich ELISA, capture A209 (Example 5), goat anti-C3-HRP; TABLE 6 well E2, 20% vitreous
[6] = target: pure human iC3b (Complement Technology, A115) (human) (UniProt P01024); assay: sandwich ELISA, capture A209 (Example 5), goat anti-C3-HRP; TABLE 6 well A3, blocker
[7] = target: pure human iC3b (Complement Technology, A115) (human) (UniProt P01024); assay: sandwich ELISA, capture A209 (Example 5), goat anti-C3-HRP; TABLE 6 well A7, blocker
[8] = target: pure human iC3b (Complement Technology, A115) (human) (UniProt P01024); assay: sandwich ELISA, capture A209 (Example 5), goat anti-C3-HRP; TABLE 7, iC3b in 20% vitreous
[9] = target: pure human iC3b (Complement Technology, A115) (human) (UniProt P01024); assay: sandwich ELISA, capture A209 (Example 5), goat anti-C3-HRP; TABLE 6 well A4, blocker
[10] = target: pure human iC3b (Complement Technology, A115) (human) (UniProt P01024); assay: sandwich ELISA, capture A209 (Example 5), goat anti-C3-HRP; TABLE 6 well B6, blocker
[11] = target: pure human iC3b (Complement Technology, A115) (human) (UniProt P01024); assay: sandwich ELISA, capture A209 (Example 5), goat anti-C3-HRP; TABLE 6 well B5, blocker
[12] = target: pure human iC3b (Complement Technology, A115) (human) (UniProt P01024); assay: sandwich ELISA, capture A209 (Example 5), goat anti-C3-HRP; TABLE 6 well C5, 30% vitreous
[13] = target: pure human iC3b (Complement Technology, A115) (human) (UniProt P01024); assay: sandwich ELISA, capture A209 (Example 5), goat anti-C3-HRP; TABLE 6 well F2, 20% vitreous
[14] = target: pure human iC3b (Complement Technology, A115) (human) (UniProt P01024); assay: sandwich ELISA, capture A209 (Example 5), goat anti-C3-HRP; TABLE 6 well C9, 30% vitreous
[15] = target: pure human iC3b (Complement Technology, A115) (human) (UniProt P01024); assay: sandwich ELISA, capture A209 (Example 5), goat anti-C3-HRP; TABLE 6 well E8, 20% vitreous
[16] = target: pure human iC3b (Complement Technology, A115) (human) (UniProt P01024); assay: sandwich ELISA, capture A209 (Example 5), goat anti-C3-HRP; TABLE 6 well C2, 30% vitreous
[17] = target: pure human iC3b (Complement Technology, A115) (human) (UniProt P01024); assay: sandwich ELISA, capture A209 (Example 5), goat anti-C3-HRP; TABLE 6 well C6, 30% vitreous
[18] = target: pure human iC3b (Complement Technology, A115) (human) (UniProt P01024); assay: sandwich ELISA, capture A209 (Example 5), goat anti-C3-HRP; TABLE 6 well C3, 30% vitreous
[19] = target: pure human iC3b (Complement Technology, A115) (human) (UniProt P01024); assay: sandwich ELISA, capture A209 (Example 5), goat anti-C3-HRP; TABLE 6 well B7, blocker
[20] = target: pure human iC3b (Complement Technology, A115) (human) (UniProt P01024); assay: sandwich ELISA, capture A209 (Example 5), goat anti-C3-HRP; TABLE 6 well A6, blocker
[21] = target: pure human iC3b (Complement Technology, A115) (human) (UniProt P01024); assay: sandwich ELISA, capture A209 (Example 5), goat anti-C3-HRP; TABLE 6 well D3, 30% vitreous
[22] = target: pure human iC3b (Complement Technology, A115) (human) (UniProt P01024); assay: sandwich ELISA, capture A209 (Example 5), goat anti-C3-HRP; TABLE 6 well H9, 10% vitreous
[23] = target: pure human iC3b (Complement Technology, A115) (human) (UniProt P01024); assay: sandwich ELISA, capture A209 (Example 5), goat anti-C3-HRP; TABLE 7, iC3b in 30% vitreous
[24] = target: pure human iC3b (Complement Technology, A115) (human) (UniProt P01024); assay: sandwich ELISA, capture A209 (Example 5), goat anti-C3-HRP; TABLE 6 well G6, 10% vitreous

Sequence of UniProt P01024 (P01024 23-667 limits assumed, chain 1 of 3): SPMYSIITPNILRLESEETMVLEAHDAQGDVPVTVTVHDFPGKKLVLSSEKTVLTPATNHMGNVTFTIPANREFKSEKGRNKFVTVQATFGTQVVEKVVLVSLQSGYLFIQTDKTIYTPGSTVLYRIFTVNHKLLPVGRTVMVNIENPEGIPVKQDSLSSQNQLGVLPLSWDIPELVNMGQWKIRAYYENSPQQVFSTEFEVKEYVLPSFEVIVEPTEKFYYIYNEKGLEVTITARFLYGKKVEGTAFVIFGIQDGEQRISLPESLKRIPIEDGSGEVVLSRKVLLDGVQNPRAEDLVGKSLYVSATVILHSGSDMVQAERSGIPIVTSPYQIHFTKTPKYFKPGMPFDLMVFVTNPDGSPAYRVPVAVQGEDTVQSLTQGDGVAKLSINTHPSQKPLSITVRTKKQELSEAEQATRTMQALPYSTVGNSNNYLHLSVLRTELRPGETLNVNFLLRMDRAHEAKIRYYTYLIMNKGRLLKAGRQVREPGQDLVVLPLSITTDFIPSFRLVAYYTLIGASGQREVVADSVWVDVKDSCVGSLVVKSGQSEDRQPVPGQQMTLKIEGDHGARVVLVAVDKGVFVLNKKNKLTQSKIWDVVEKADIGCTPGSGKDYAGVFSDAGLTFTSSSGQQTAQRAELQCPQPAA
Sequence of UniProt P01024 (P01024 749-1303 limits assumed, chain 2 of 3): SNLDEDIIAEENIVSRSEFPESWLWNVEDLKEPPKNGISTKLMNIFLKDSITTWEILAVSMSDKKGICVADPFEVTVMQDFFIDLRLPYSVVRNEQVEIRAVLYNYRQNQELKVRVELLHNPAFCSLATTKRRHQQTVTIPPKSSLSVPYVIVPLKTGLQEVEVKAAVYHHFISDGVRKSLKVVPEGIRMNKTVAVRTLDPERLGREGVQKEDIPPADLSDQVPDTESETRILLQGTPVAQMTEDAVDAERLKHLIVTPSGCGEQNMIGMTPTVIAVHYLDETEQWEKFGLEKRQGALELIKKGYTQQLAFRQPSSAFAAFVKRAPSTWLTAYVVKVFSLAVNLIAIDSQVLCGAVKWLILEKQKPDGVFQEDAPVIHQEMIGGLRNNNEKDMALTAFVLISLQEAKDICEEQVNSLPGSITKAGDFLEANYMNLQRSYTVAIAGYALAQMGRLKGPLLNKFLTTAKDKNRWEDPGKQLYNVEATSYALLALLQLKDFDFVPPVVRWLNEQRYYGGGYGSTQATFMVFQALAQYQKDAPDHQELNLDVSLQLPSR
Sequence of UniProt P01024 (P01024 1321-1663 limits assumed, chain 3 of 3): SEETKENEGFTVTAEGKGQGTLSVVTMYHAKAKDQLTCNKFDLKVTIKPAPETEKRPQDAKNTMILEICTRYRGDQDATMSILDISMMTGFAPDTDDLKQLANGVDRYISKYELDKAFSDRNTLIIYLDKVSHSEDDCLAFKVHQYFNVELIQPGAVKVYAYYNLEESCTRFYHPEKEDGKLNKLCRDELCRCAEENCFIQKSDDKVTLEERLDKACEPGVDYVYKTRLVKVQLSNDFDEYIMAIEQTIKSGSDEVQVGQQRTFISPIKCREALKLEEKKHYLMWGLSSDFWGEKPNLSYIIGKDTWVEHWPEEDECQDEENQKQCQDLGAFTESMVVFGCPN

Substance: mouse anti-iC3b antibody A209 (Quidel)
- raw A450 at iC3b 0.063 ug/ml [1]: 0.23 OD
- raw A450 at iC3b 0.031 ug/ml [2]: 0.231 OD
- raw A450 at iC3b 0.063 ug/ml [3]: 0.362 OD
- raw A450 at iC3b 0.0078 ug/ml [4]: 0.035 OD
- raw A450 at iC3b 1 ug/ml [5]: 0.485 OD
- raw A450 at iC3b 0.5 ug/ml [6]: 0.258 OD
- raw A450 at iC3b 0.031 ug/ml [7]: 0.053 OD
- A450 minus matrix average at iC3b 0.0078 ug/ml [8]: -0.002 OD
- A450 minus matrix average at iC3b 0.016 ug/ml [8]: 0 OD
- A450 minus matrix average at iC3b 0.031 ug/ml [8]: 0.012 OD
- A450 minus matrix average at iC3b 0.063 ug/ml [8]: 0.03 OD
- A450 minus matrix average at iC3b 0.25 ug/ml [8]: 0.099 OD
- A450 minus matrix average at iC3b 0.5 ug/ml [8]: 0.122 OD
- A450 minus matrix average at iC3b 1 ug/ml [8]: 0.182 OD
- raw A450 at iC3b 0.25 ug/ml [9]: 0.169 OD
- raw A450 at iC3b 0.063 ug/ml [10]: 0.07 OD
- raw A450 at iC3b 0.125 ug/ml [11]: 0.1 OD
- raw A450 at iC3b 0.125 ug/ml [12]: 0.385 OD
- raw A450 at iC3b 1 ug/ml [13]: 0.527 OD
- raw A450 at iC3b 0.0078 ug/ml [14]: 0.368 OD
- raw A450 at iC3b 0.016 ug/ml [15]: 0.321 OD
- raw A450 at iC3b 1 ug/ml [16]: 0.443 OD
- raw A450 at iC3b 0.063 ug/ml [17]: 0.375 OD
- raw A450 at iC3b 0.5 ug/ml [18]: 0.406 OD
- raw A450 at iC3b 0.031 ug/ml [19]: 0.048 OD
- raw A450 at iC3b 0.063 ug/ml [20]: 0.064 OD
- raw A450 at iC3b 0.5 ug/ml [21]: 0.406 OD
- raw A450 at iC3b 0.0078 ug/ml [22]: 0.207 OD
- A450 minus matrix average at iC3b 0.0078 ug/ml [23]: 0.0042 OD
- A450 minus matrix average at iC3b 0.016 ug/ml [23]: -0.02 OD
- A450 minus matrix average at iC3b 0.031 ug/ml [23]: -0.005 OD
- A450 minus matrix average at iC3b 0.063 ug/ml [23]: 0.008 OD
- A450 minus matrix average at iC3b 0.125 ug/ml [23]: 0.027 OD
- A450 minus matrix average at iC3b 0.25 ug/ml [23]: 0.051 OD
- A450 minus matrix average at iC3b 0.5 ug/ml [23]: 0.045 OD
- A450 minus matrix average at iC3b 1 ug/ml [23]: 0.087 OD
- raw A450 at iC3b 0.063 ug/ml [24]: 0.254 OD

— patent publication US20160153985A1
